These results are taken from the nanobody polyreactivity screen of Harvey et al. (2022).

This series in a line: yeast display, Sf9 membrane polyspecificity reagent, FACS + sequencing; frameworks hold sequencing errors. The method in brief:
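Using colony PCR, genes from sorted yeast display clones were amplified, then sequenced on MiSeq at 2 × 250 and filtered by CDR length. The clones had been stained with 10% biotinylated, detergent-solubilized Sf9 membrane reagent for 1 hour at 4 °C and sorted by FACS into low and high (top ~1%) gates on anti-HA and streptavidin fluorescence. Polyreactivity labels come from the gate of origin.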
For “QVQLVESGGGLVQAGGSLRLSCAASGSSKLMLWDGIDRRLGKKGSWLPLFVLVVLRNYSDSVKGRFTISRDNAKNTVYLQMNSLKPEDTAVYYCAATPIGSGGWGDYWGQGTQVTVSS”, the “polyreactivity (PSR sort gate)” value is given as “low polyreactivity”.
Then “QVQLVESGGGLVQAGGSLRLSCAASGSSLNLNAMGWYRQAPGKERELVAAIRWGGGSTYYADSVKGRFTISRDNAKNTDYLQMNSLKPEDTAVYYCAKAYHLGLGYRFDYWGQGTQVTVSS”, with “high polyreactivity”.
The value for “QVQLVESGGGLVQAGGSLRLSCAASGSSLWYNTMGWYRQAPGKERELVATISGSGANTYYADSVKGRFTISRDNAKNTDYLQMNSLKPEDTAGYYCAAVYRRWGYSSEYDYWGQGTQVTVSS” was “high polyreactivity”; that for “QVQLVESGGGLVQAGGSLRLSCAASGSSRYAMGWYTPAPGKERELVAVITLSGGITYADSVKGRFTISRDNAKNTVYLQMKSLKPEDTAVYYCNADYGDWPTGGDYWGQGTQVTVSS” was “low polyreactivity”.
Then “QVQLVESGGGLVQAGGSLRLSCAASGSTCAANAMGWYRQAPGKERELVAGISESVDRTYADSVKGRFTISRDNAKNTVYLQMNSLKPEDTAVYYCKVGANVYLLYFPSRGGVYDYGYWGQGTQVTVSS”, with “low polyreactivity”; and “QVQLVESGGGLVQAGGSLRLSCAASGSTCSVNAMGWYRQAPGKERELVAAITYSGGSTYYADSVKGRFTISRDNAKNTVYLQMNSLKPEDTAVYYCNRDTRYYWKRYGYWGQGTQVTVSS”, with “high polyreactivity”.
With “QVQLVESGGGLVQAGGSLRLSCAASGSTDNNAMGWYRQAPGKERELVAAIRFRSGSTYYADSVNGRFTISRDNAKNTVYLQMNSLKPEDTAVYYCAAPGSPYGYWGQGTQVTVSS”, the “polyreactivity (PSR sort gate)” value is recorded as “high polyreactivity”.
The value for “QVQLVESGGGLVQAGGSLRLSCAASGSTFAAYAKGWYRQAPGKERELVAAISRSGGTTYYADSVKGRFTISRDNAKNTVYLQMNSLKPEDTAVYYCAAEQWYDNYLEYDYWGQGTQVTVSS” was “high polyreactivity”.
Then “QVQLVESGGGLVQAGGSLRLSCAASGSTFACNGMGWYRQAPGKERELVAGIDVTGGSTYYADSVKGRFTISRDNAKNTDYLQMNSMKPEDTAVYYCNARYVYHSSFAGFDYWGQGTQVTVSS”, with “low polyreactivity”; and “QVQLVESGGGLVQAGGSLRLSCAASGSTFADYTMGWYRQAPGKERELSTSYADSVKGRFTISRDNAKNTVYLQMNSLKPEDTAVYYCAAETFYDYGGYDYWGQGTQVTVSS”, with “low polyreactivity”.
The value for “QVQLVESGGGLVQAGGSLRLSCAASGSTFAEYAMGLYRQAPGKERELVAAISRRGGSTYYADSVKGRFTFSRDNAKYSVYLQMNSLKPEDTAVYYCATDGYTPYRWLWWLMDYWGQGTQVTVSS” was “high polyreactivity”; that for “QVQLVESGGGLVQAGGSLRLSCAASGSTFAFNAMGWYRQAPGKERELVAAISTSGGDTYYADSVKGRFTISRDNAKNTVYLQMNSLKPEDTAVYYCGGDYQVPGGSWMDYWGQGTQVTVSS” was “high polyreactivity”.
For “QVQLVESGGGLVQAGGSLRLSCAASGSTFAFYAMGWYRQAPGKERELVAAINLGGGSTYYADSVKGRFTISRDNAKNTVYLQMNSLKPEDTAVYYCAADFWTFSWPVFDTYVYWGQGTQVTVSS”, the “polyreactivity (PSR sort gate)” value was “low polyreactivity”.
Then “QVQLVESGGGLVQAGGSLRLSCAASGSTFAFYAMGWYRQAPGKERELVAAISSSGARTYYADSVKGRFTISRYNAKNTVYLQMNSLKPEDTAVYYCAAAFYRLYITSYYYWGQGTQVTVSS”, with “high polyreactivity”; and “QVQLVESGGGLVQAGGSLRLSCAASGSTFAGHAMGWSRQAPGKERELVAAITFSGGRTDYADSVKGRFTISRDNAKNTVYLQMNSLIPEDTAVYYCAAPADDTVHYQNYYWGQGTQVTVSS”, with “low polyreactivity”; and “QVQLVESGGGLVQAGGSLRLSCAASGSTFAGNAMGWYRQAPGKERELVAAISGSGGITYYADSVKGRFTISRDNAKNTVYLQMNSLKPEDTAVYYCNAYYWFSRYGYWGQGTQVTVSS”, with “high polyreactivity”.
The value for “QVQLVESGGGLVQAGGSLRLSCAASGSTFAGYAMGWYRQAPGKERELVAAISRRGGSTYYADSVKGRFTISRDNAKNTVYLQMNSLKPEDTAVYYCNRDKYLRDPDYDYWGQGTQVTVSS” was “low polyreactivity”.
Then “QVQLVESGGGLVQAGGSLRLSCAASGSTFAGYVMGWYRQAPGKERELVAAISRSGGSTYYADSVKGRFTISRDNAKNTVYLQMNSLKPEDTAVYYCAARNSPGFPGDYWGHGTQVTVSS”, with “high polyreactivity”.
Consider “QVQLVESGGGLVQAGGSLRLSCAASGSTFAGYVMGWYRQAPGKERELVAAISRSGGSTYYADSVKGRFTISRDNAKNTVYLQMNSLKPEDTAVYYCAARNSPGLPGDYWGQGTQVTVSS”, for which the “polyreactivity (PSR sort gate)” value was “high polyreactivity”.
Consider “QVQLVESGGGLVQAGGSLRLSCAASGSTFAIDAMGWDRQAPGQDRELVASISGGSTNYADSVKGRVTISRDKAKNTVDLQRNSLKPEDTAVYYCAARGALQHWYRYDYWGQGTQGTVSS”, for which the “polyreactivity (PSR sort gate)” value is on record as “low polyreactivity”.
The value for “QVQLVESGGGLVQAGGSLRLSCAASGSTFAINARGWYRQAPGKERELVAAISSSGSTNYADSVKGRFTISRDNAKITVYLQMNSLKPEDTAVYYCAATGYRVYGFEFGYWGQGTQVTVSS” was “low polyreactivity”; that for “QVQLVESGGGLVQAGGSLRLSCAASGSTFAKNAMGWYRQAPGKERELVAAISRGGNTYYADSVKGRFTISRDNAKNTVYLHMNSLKPEDTAVYYCAKLPYTRTYLGSLYDYWGQGTQVTVSS” was “high polyreactivity”; that for “QVQLVESGGGLVQAGGSLRLSCAASGSTFAKYAMGWYRQAPGKERELVAVITSGGSTYYADSVKGRFTISRDNAKNTVYLQMNSLKPEDTAVYYCAAAVRAWARRYDYWGQGTQVTVSS” was “high polyreactivity”.
In the case of “QVQLVESGGGLVQAGGSLRLSCAASGSTFALNAMGWYRQAPGKERELVADINYIGDSTYYADSVKGRFTISRDNAKNTVYLLMNSLKPEDTAVYYCAAKSIIRPYAPRRDDMDYWGQGTQVTVSS”, the “polyreactivity (PSR sort gate)” value is on record as “low polyreactivity”.
As to “QVQLVESGGGLVQAGGSLRLSCAASGSTFAPNAMGWYRQAPGKEREFVATISASGGYTYYADSVKGRFTISRDNAKNTVYLQMNSLKPEDTAVYYCYAVWRVGRQLSQAKIPYDYWGQGTQVTVSS”, the “polyreactivity (PSR sort gate)” value is “low polyreactivity”.
Then “QVQLVESGGGLVQAGGSLRLSCAASGSTFAPNAMGWYRQAPGKERELVAAISSGGDSTNYADSVKGRFTISRDNAKNTVYLQMNSLKPEDTAVYYCAHGYWFVAYDYWGQGTQVTVSS”, with “low polyreactivity”.
Then “QVQLVESGGGLVQAGGSLRLSCAASGSTFAPNAMGWYRQAPGKERELVAVITRSVGSTYYADSVKGRFTISRDNSKNTVYLKMNSLKPEDTAVYFCAADYLRQDDYVALDYWGQGTQVTVSS”, with “low polyreactivity”; and “QVQLVESGGGLVQAGGSLRLSCAASGSTFAQNAMGWYILAPGKERELVAAISRRGTITNYADSVKGRFTISRDNEKITVYLQMYSLKPEDTAVYYCATRSWLLGIQGGYWGQGTQVTVSS”, with “high polyreactivity”; and “QVQLVESGGGLVQAGGSLRLSCAASGSTFARNAMGWYRQAPGKEREFVATISSSGGRTYYADSVKGRFTISRDIAKNTVYLQMNSLNPEDTAVYYCNKALRTYPLFYYWGQGTQVTVSS”, with “high polyreactivity”.
The value for “QVQLVESGGGLVQAGGSLRLSCAASGSTFARNVMGWYRQAPGKERELVAAISWRGGRTYYADSVKGRFTISRDNAKNTVYLQMNSLKPEDTAVYYCAAGRSFRGSYWYEYWGQGTKVTVSS” was “high polyreactivity”.
